Source: patent US20100092461A1, “Remedy For Chemotherapy-Resistant Cancer Containing HLA Class I-Recognizing Antibody as the Active Ingredient and Use of the Same” (CHUGAI SEIYAKU KABUSHIKI KAISHA, priority 2007, published 2010)

Columns and labels:
[1] = system: parent cell lines; test: Daunorubicin uptake into cells (accumulation and efflux phase, flow cytometry), parent cell lines; type: cell-based; conditions: FIG. 8
Method: (§1) To elucidate the mechanism of overcoming drug (chemotherapeutic agent)-resistance using C3B3-DB, MDR1 expression on the cell surface was examined after treating these cells for six hours with C3B3-DB (0.1 μg/mL). […] Furthermore, treatment of these cells with C3B3-DB was followed by culturing these cells in the presence of daunorubicin (0.1 μg/mL, Meiji Seika, Tokyo) and the amount of daunorubicin uptake into cells were compared.
(§2) Specifically, uptake of the pharmaceutical agent into the cells (accumulation phase) was evaluated by culturing the cells for two hours in the presence or absence of C3B3-DB, then adding daunorubicin and culturing the cells for 30 minutes, washing the cells, and then measuring the PE intensity by flow cytometry. The cells were cultured for another 30 minutes to evaluate persistence of the pharmaceutical agent in the cells (efflux phase) in a same manner using flow cytometry.

[2] = system: vincristine-resistant cell lines; test: Daunorubicin uptake into cells (accumulation and efflux phase, flow cytometry), vincristine-resistant cell lines; type: cell-based; conditions: FIG. 8
Method: as §1, §2

[3] = system: HL60; test: Cytotoxic activity, cell growth test using WST-8, HL60; type: cell-based; conditions: FIG. 6
Method: (§3) Acute myeloid leukemia cell line HL60 (American Type Culture Collection, Manassas, Va., USA) and Burkitt's lymphoma cell line BLTH (kindly gifted from Prof Hirose at The University of Tokushima, Br. J. Cancer (1987) 56: 413-417) were cultured in the presence of vincristine to obtain vincristine-resistant cell lines HL60-R and BLTH-R.
(§4) First, these tumor cells were used to examine their susceptibility to C3B3-DB. These tumor cells were cultured in the presence of various concentrations of C3B3-DB and then antitumor activity (cytotoxic activity) of C3B3-DB was measured by cell growth tests using WST-8 (Kishida Chemicals, Osaka).
(§5) In addition, whether or not drug resistance in chemotherapeutic agent-resistant tumor cells can be overcome (improved) was examined by culturing these cells in the presence or absence of C3B3-DB (0.1 μg/mL) for six hours and then adding vincristine.

[4] = system: BLTH; test: Cytotoxic activity, cell growth test using WST-8, BLTH; type: cell-based; conditions: FIG. 6
Method: as §3, §4, §5

[5] = system: HL60-R; test: Cytotoxic activity, cell growth test using WST-8, HL60-R; type: cell-based
Method: as §3, §4, §5

[6] = system: BLTH-R; test: Cytotoxic activity, cell growth test using WST-8, BLTH-R; type: cell-based
Method: as §3, §4, §5

[7] = system: MDR1; test: MDR1 expression on the cell surface after C3B3-DB treatment (flow cytometry); type: cell-based; conditions: six hours with C3B3-DB 0.1 μg/mL, chemotherapeutic agent-resistant cell lines, FIG. 7
Excerpt: MDR1 expression on the cell surface was examined by flow cytometry using anti-MDR1 antibody (UIC-2, Chemicon, Temecula, Calif., USA) and FITC-labeled goat anti-mouse IgG antibody (Biosource, Camarillo, Calif., USA). Mouse IgG (BD Biosciences, San Jose, Calif., USA) was used for the control antibody.
as §1

[8] = system: activated lymphocytes; conditions: cited from earlier work
[9] = system: human myeloma cells; conditions: various human myeloma cell lines; cited from earlier work
[10] = used alone, compared with 2D7 diabody used alone, Patent Document 5; cited from earlier work
[11] = system: multiple myeloma model mice generated by transplanting human myeloma cell line; conditions: cited from earlier work
[12] = C3B3-DB two hours then daunorubicin

## COc1cccc2c1C(=O)c1c(O)c3c(c(O)c1C2=O)C[C@@](O)(C(C)=O)C[C@@H]3O[C@H]1C[C@H](N)[C@H](O)[C@H](C)O1 [daunorubicin, reference compound]
[1]; daunorubicin 0.1 μg/mL, accumulation and efflux phase
  amount of daunorubicin uptake into cells: a certain amount of daunorubicin was taken up
[2]; daunorubicin 0.1 μg/mL, both phases
  amount of daunorubicin uptake into cells: significantly decreased

## CC[C@]1(O)C[C@H]2CN(CCc3c([nH]c4ccccc34)[C@@](C(=O)OC)(c3cc4c(cc3OC)N(C=O)[C@H]3[C@@](O)(C(=O)OC)[C@H](OC(C)=O)[C@]5(CC)C=CCN6CC[C@]43[C@@H]65)C2)C1 [vincristine, reference compound]
[3]; HL60, with or without C3B3-DB pre-treatment
  cell injury by vincristine: concentration-dependent cell injury
[4]; with or without C3B3-DB pre-treatment
  cell injury by vincristine: concentration-dependent cell injury

B1: C3B3-DB: C3B3 diabody, a low-molecular-weight antibody of the C3B3 antibody recognizing HLA class I (protein)
scFv: EVKLVESEGGLVQPGSSMKLSCTASGFTFSDHYMAWVRQVPEKGLEWVADINYDGSRTYYLDSLKSRFIISRDNGKNILYLQMSSLKSEDTATYYCARDRVRSSYYSNLFAMDYWGQGISVTVSSGGGGSDIQMTQTTSSLSASLGDRVTISCRASQDIANYLNWYQQKPDGTVKLLIYYTSRLHSGVPSRFSGSGSGTDYSLTISNLEPEDIATYYCQQYSKLPYTFGSGTKLEIK
modifications: left off: small tags and cut ends
[3]; HL60, C3B3-DB 0.1 μg/mL for six hours then vincristine
  cytotoxic activity enhancement of vincristine due to pre-treatment: not observed
[4]; C3B3-DB 0.1 μg/mL for six hours then vincristine
  cytotoxic activity enhancement of vincristine due to pre-treatment: not observed
[5]; C3B3-DB alone, 24 hours, HL60-R compared with parent HL60, FIG. 5
  cytotoxic activity (survival rate of the cells): cell injury was induced at lower concentrations
[5]; HL60-R, C3B3-DB 0.1 μg/mL for six hours then vincristine, FIG. 6
  cytotoxic activity enhancement of vincristine due to pre-treatment: enhanced
[6]; BLTH-R, C3B3-DB 0.1 μg/mL for six hours then vincristine, FIG. 6
  cytotoxic activity enhancement of vincristine due to pre-treatment: enhanced
[6]; C3B3-DB alone, 24 hours, BLTH-R compared with parent BLTH, FIG. 5
  cytotoxic activity (survival rate of the cells): cell injury was induced at lower concentrations
[7]
  MDR1 expression on the cell surface: decrease in some cells
[1]; [12]
  pre-treatment effect on amount of daunorubicin uptake: not observed
[2]; [12]
  pre-treatment effect on amount of daunorubicin uptake: increased the amount of uptake
[8]
  cell death-inducing activity: strong cell death-inducing activity
[9]
  cell death-inducing activity: strong cell death-inducing activity
[10]
  antitumor effects: stronger antitumor effects than 2D7 diabody
[11]
  survival benefit: significant survival benefit
